{"source": "the supplement of paper PMC9112550", "about": "“Optimization of the antimicrobial peptide Bac7 by deep mutational scanning” (BMC Biology, 2022);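 further: peptides expressed intracellularly from a pBAD plasmid library in pooled LB shake-flask culture, induced with 0.3% L-arabinose, DNA abundance read by NGS, three biological replicates, DESeq2 with apeglm shrinkage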"}
{"tested_on": "Escherichia coli TOP10", "assay": "shrunken log2 fold change of peptide-encoding DNA abundance (4.5 h post-induction vs induction); higher = less antimicrobial activity (less host growth inhibition)", "conditions": "time post-induction: 4.5 h; library: site-saturation at positions 5, 18, 19, 20"}
{"sequence": "RRIRTRPPRLPRPRPRPQLEPRP", "shrunken log2 fold change": 0.341}
{"sequence": "RRIRTRPPRLPRPRPRPKDWPRP", "shrunken log2 fold change": 0.358}
{"sequence": "RRIRPRPPRLPRPRPRPKFAPRP", "shrunken log2 fold change": 0.409}
{"sequence": "RRIRSRPPRLPRPRPRPDWWPRP", "shrunken log2 fold change": -0.0873}
{"sequence": "RRIRNRPPRLPRPRPRPDMSPRP", "shrunken log2 fold change": 0.000831}
{"sequence": "RRIRKRPPRLPRPRPRPMKWPRP", "shrunken log2 fold change": -0.0374}
{"sequence": "RRIRIRPPRLPRPRPRPLALPRP", "shrunken log2 fold change": -0.138}
{"sequence": "RRIRIRPPRLPRPRPRPMFIPRP", "shrunken log2 fold change": -0.454}
{"sequence": "RRIRRRPPRLPRPRPRPQENPRP", "shrunken log2 fold change": -0.0472}
{"sequence": "RRIRMRPPRLPRPRPRPLGIPRP", "shrunken log2 fold change": 0.0188}
{"sequence": "RRIRNRPPRLPRPRPRPNVNPRP", "shrunken log2 fold change": -0.795}
{"sequence": "RRIRMRPPRLPRPRPRPAWWPRP", "shrunken log2 fold change": 0.879}
{"sequence": "RRIRTRPPRLPRPRPRPSKIPRP", "shrunken log2 fold change": -0.24}
{"sequence": "RRIRFRPPRLPRPRPRPQHMPRP", "shrunken log2 fold change": -0.615}
{"sequence": "RRIRPRPPRLPRPRPRPPMRPRP", "shrunken log2 fold change": 0.833}
{"sequence": "RRIRRRPPRLPRPRPRPHEGPRP", "shrunken log2 fold change": 0.28}
{"sequence": "RRIRTRPPRLPRPRPRPAMVPRP", "shrunken log2 fold change": -0.208}
{"sequence": "RRIRGRPPRLPRPRPRPWLMPRP", "shrunken log2 fold change": 0.428}
{"sequence": "RRIRIRPPRLPRPRPRPRLDPRP", "shrunken log2 fold change": 0.1}
{"sequence": "RRIRHRPPRLPRPRPRPAWEPRP", "shrunken log2 fold change": 0.421}
{"sequence": "RRIRLRPPRLPRPRPRPEQGPRP", "shrunken log2 fold change": 1.07}
{"sequence": "RRIRQRPPRLPRPRPRPYFKPRP", "shrunken log2 fold change": -0.454}
{"sequence": "RRIRERPPRLPRPRPRPCCEPRP", "shrunken log2 fold change": -0.366}
{"sequence": "RRIRARPPRLPRPRPRPLAEPRP", "shrunken log2 fold change": 0.976}
{"sequence": "RRIRGRPPRLPRPRPRPMIGPRP", "shrunken log2 fold change": 0.263}
{"sequence": "RRIRMRPPRLPRPRPRPTWNPRP", "shrunken log2 fold change": 0.188}
{"sequence": "RRIRGRPPRLPRPRPRPPNNPRP", "shrunken log2 fold change": 0.835}
{"sequence": "RRIRARPPRLPRPRPRPKWIPRP", "shrunken log2 fold change": 0.0218}
{"sequence": "RRIRTRPPRLPRPRPRPDVVPRP", "shrunken log2 fold change": -0.106}
{"sequence": "RRIRFRPPRLPRPRPRPKCLPRP", "shrunken log2 fold change": 0.049}
{"sequence": "RRIRMRPPRLPRPRPRPSCTPRP", "shrunken log2 fold change": -0.0592}
{"sequence": "RRIRARPPRLPRPRPRPESWPRP", "shrunken log2 fold change": 1.49}
{"sequence": "RRIRCRPPRLPRPRPRPMGSPRP", "shrunken log2 fold change": 0.0655}
{"sequence": "RRIRERPPRLPRPRPRPRNHPRP", "shrunken log2 fold change": -0.367}
{"sequence": "RRIRGRPPRLPRPRPRPMVNPRP", "shrunken log2 fold change": 0.744}
{"sequence": "RRIRYRPPRLPRPRPRPSVYPRP", "shrunken log2 fold change": -0.888}
{"sequence": "RRIRIRPPRLPRPRPRPEADPRP", "shrunken log2 fold change": 0.196}
{"sequence": "RRIRCRPPRLPRPRPRPSYQPRP", "shrunken log2 fold change": -0.923}
{"sequence": "RRIRIRPPRLPRPRPRPGVLPRP", "shrunken log2 fold change": -0.0531}
{"sequence": "RRIRYRPPRLPRPRPRPGPMPRP", "shrunken log2 fold change": -0.148}
{"sequence": "RRIRFRPPRLPRPRPRPDADPRP", "shrunken log2 fold change": 0.386}
{"sequence": "RRIRLRPPRLPRPRPRPKLEPRP", "shrunken log2 fold change": -0.354}
{"sequence": "RRIRSRPPRLPRPRPRPIGMPRP", "shrunken log2 fold change": -0.35}
{"sequence": "RRIRSRPPRLPRPRPRPFERPRP", "shrunken log2 fold change": -0.00192}
{"sequence": "RRIRSRPPRLPRPRPRPNWCPRP", "shrunken log2 fold change": 0.0144}
{"sequence": "RRIRMRPPRLPRPRPRPLVEPRP", "shrunken log2 fold change": 2.17}
{"sequence": "RRIRWRPPRLPRPRPRPIGNPRP", "shrunken log2 fold change": 0.137}
{"sequence": "RRIRLRPPRLPRPRPRPQPMPRP", "shrunken log2 fold change": 0.216}
{"sequence": "RRIRIRPPRLPRPRPRPLWQPRP", "shrunken log2 fold change": 0.0858}
{"sequence": "RRIRYRPPRLPRPRPRPFCEPRP", "shrunken log2 fold change": -0.456}
{"sequence": "RRIRDRPPRLPRPRPRPMDSPRP", "shrunken log2 fold change": -0.0175}
{"sequence": "RRIRSRPPRLPRPRPRPTPEPRP", "shrunken log2 fold change": 0.866}
{"sequence": "RRIRGRPPRLPRPRPRPIYVPRP", "shrunken log2 fold change": 1.23}
{"sequence": "RRIRQRPPRLPRPRPRPSLAPRP", "shrunken log2 fold change": 0.404}
{"sequence": "RRIRKRPPRLPRPRPRPQEHPRP", "shrunken log2 fold change": 0.0487}
{"sequence": "RRIRDRPPRLPRPRPRPRFFPRP", "shrunken log2 fold change": 0.226}
{"sequence": "RRIRGRPPRLPRPRPRPDAWPRP", "shrunken log2 fold change": 1.17}
{"sequence": "RRIRQRPPRLPRPRPRPWMCPRP", "shrunken log2 fold change": 0.00702}
{"sequence": "RRIRSRPPRLPRPRPRPRILPRP", "shrunken log2 fold change": -0.34}
{"sequence": "RRIRTRPPRLPRPRPRPYPEPRP", "shrunken log2 fold change": -0.817}
